From patent US20220089710A1, “Method of Treating Signs and Symptoms of Osteoarthritis” (Pfizer Inc., priority 2019, published 2022)

Tested on: patients with osteoarthritis (OA) of the knee or hip
Assay: Example 3: adjudicated joint safety outcomes (patient-level and joint-level) and total joint replacements, Safety Population
Assay type: in vivo, human
Details: for rapidly progressive OA (types 1 and 2 combined): % of patients: any adjudicated RPOA
Source text: Central radiology readers (Central Readers) may be board certified radiologists or have the international equivalent as musculoskeletal radiologists. The Central Readers may be governed by an imaging atlas and an imaging Charter which includes a specific description of the scope of their responsibilities. Central Readers may review the radiology images at Screening for assessment of eligibility (including determination of Kellgren-Lawrence Grade) and identification of exclusionary joint conditions such as rapidly progressive osteoarthritis, atrophic or hypotrophic osteoarthritis, subchondral insufficiency fractures (spontaneous osteonecrosis of the knee [SPONK]), primary osteonecrosis and pathological fractures. After start of treatment, the Central Reader may review radiology images for diagnosis of joint conditions that would warrant further evaluation by the Adjudication Committee such as possible or probable rapidly progressive osteoarthritis, subchondral insufficiency fractures (spontaneous osteonecrosis of the knee [SPONK]), primary osteonecrosis or pathological fracture.
For subjects who are identified with a possible or probable joint event (i.e., rapidly progressive osteoarthritis, subchondral insufficiency fractures, spontaneous osteonecrosis of the knee (SPONK), primary osteonecrosis or pathological fracture) and subjects undergoing total joint replacement for any reason, all images and other source documentation may be provided to the blinded Adjudication Committee for review and adjudication of the event. The Adjudication Committee's assessment of the event may represent the final classification of the event.
This study was designed with a total (post-randomization) duration of 80 weeks and consisted of three periods: Screening (up to a maximum of 37 days), Double-blind Treatment (56 weeks), and Safety Follow-up (24 weeks) (FIG. 1). The Screening Period included a Washout Period (lasting 2-30 days) if required, and an Initial Pain Assessment Period (7 days prior to Randomization/Baseline; minimum 3 days).

[1] = 2.5 mg SC, observation time-adjusted analysis
[2] = 2.5 mg SC, primary outcome per subject
[3] = 5 mg SC, observation time-adjusted analysis
[4] = 5 mg SC, primary outcome per subject
[5] = tanezumab 2.5 mg (N = 1002), joint-level
[6] = tanezumab 5 mg (N = 998), joint-level

tanezumab: humanized immunoglobulin G Type 2 (IgG2) monoclonal antibody directed against human nerve growth factor (NGF); SEQ ID NOs: 9 or 11 and 10
Observation time-adjusted incidence of patients with ≥1 reported TJR (2.5 mg SC): (51.8) /1000 patient-years | Pathological Fracture: observation time-adjusted rate (2.5 mg SC): (0) /1000 patient-years | Patients analyzed by the Adjudication Committee: n (2.5 mg SC): 115 | Primary Composite Joint Safety Endpoint: rate difference vs. NSAID (2.5 mg SC): 22.5 | Primary Osteonecrosis: observation time-adjusted rate (2.5 mg SC): (0) /1000 patient-years | Rapidly Progressive OA type 1: observation time-adjusted rate (2.5 mg SC): (28.4) /1000 patient-years | Rapidly Progressive OA type 1: rate difference vs. NSAID (2.5 mg SC): 17.6 | Rapidly Progressive OA type 2: rate difference vs. NSAID (2.5 mg SC): 1.9 | Rapidly Progressive OA: rate difference vs. NSAID (2.5 mg SC): 19.6 | Secondary Composite Joint Safety Endpoint: observation time-adjusted rate (2.5 mg SC): (8.8) /1000 patient-years | Secondary Composite Joint Safety Endpoint: rate difference vs. NSAID (2.5 mg SC): 3.8 | Subchondral Insufficiency Fracture: observation time-adjusted rate (2.5 mg SC): (5.8) /1000 patient-years | Subchondral Insufficiency Fracture: rate difference vs. NSAID (2.5 mg SC): 1.9 | TJR: rate difference vs. NSAID (2.5 mg SC): 27.2 | patients with ≥1 reported TJR: number (2.5 mg SC): 53 | rapidly progressive OA (types 1 and 2 combined): % of patients (2.5 mg SC): 3.2% | Pathological Fracture: n [1]: 0 | Primary Composite Joint Safety Endpoint: n [1]: 38 | Primary Osteonecrosis: n [1]: 0 | Rapidly Progressive OA type 1: n [1]: 29 | Rapidly Progressive OA: n [1]: 32 | Secondary Composite Joint Safety Endpoint: n [1]: 9 | Subchondral Insufficiency Fracture: n [1]: 6 | Normal Progression of OA: % [2]: (6.6%) | Normal Progression of OA: n [2]: 66 | Not enough information to determine Rapid vs. Normal Progression of OA: % [2]: (0.2%) | Not enough information to determine Rapid vs. Normal Progression of OA: n [2]: 2 | Other Joint Outcome: % [2]: (0.9%) | Other Joint Outcome: n [2]: 9 | Pathological Fracture: n [2]: 0 | Primary Composite Joint Safety Endpoint: % [2]: 3.8% and (3.8%) | Primary Composite Joint Safety Endpoint: n [2]: 38 | Primary Osteonecrosis: n [2]: 0 | Rapidly Progressive OA type 1: % [2]: (2.9%) | Rapidly Progressive OA type 1: n [2]: 29 | Rapidly Progressive OA type 2: % [2]: (0.3%) | Rapidly Progressive OA: % [2]: (3.2%) | Rapidly Progressive OA: n [2]: 32 | Secondary Composite Joint Safety Endpoint: % [2]: (0.9%) | Secondary Composite Joint Safety Endpoint: n [2]: 9 | Subchondral Insufficiency Fracture: % [2]: (0.6%) | Subchondral Insufficiency Fracture: n [2]: 6 | Observation time-adjusted incidence of patients with ≥1 reported TJR (5 mg SC): (78.7) /1000 patient-years | Pathological Fracture: observation time-adjusted rate (5 mg SC): (0) /1000 patient-years | Patients analyzed by the Adjudication Committee: n (5 mg SC): 171 | Primary Composite Joint Safety Endpoint: rate difference vs. NSAID (5 mg SC): 56.7 | Primary Osteonecrosis: observation time-adjusted rate (5 mg SC): (1.0) /1000 patient-years | Rapidly Progressive OA type 1: observation time-adjusted rate (5 mg SC): (49.1) /1000 patient-years | Rapidly Progressive OA type 1: rate difference vs. NSAID (5 mg SC): 38.2 | Rapidly Progressive OA type 2: rate difference vs. NSAID (5 mg SC): 12.9 | Rapidly Progressive OA: rate difference vs. NSAID (5 mg SC): 51.5 | Secondary Composite Joint Safety Endpoint: observation time-adjusted rate (5 mg SC): (21.8) /1000 patient-years | Secondary Composite Joint Safety Endpoint: rate difference vs. NSAID (5 mg SC): 16.9 | Subchondral Insufficiency Fracture: observation time-adjusted rate (5 mg SC): (6.9) /1000 patient-years | Subchondral Insufficiency Fracture: rate difference vs. NSAID (5 mg SC): 3.0 | TJR: rate difference vs. NSAID (5 mg SC): 54.0 | patients with ≥1 reported TJR: number (5 mg SC): 79 | rapidly progressive OA (types 1 and 2 combined): % of patients (5 mg SC): 6.3% | Pathological Fracture: n [3]: 0 | Primary Composite Joint Safety Endpoint: n [3]: 71 | Primary Osteonecrosis: n [3]: 1 | Rapidly Progressive OA type 1: n [3]: 49 | Rapidly Progressive OA type 2: n [3]: 14 | Rapidly Progressive OA: n [3]: 63 | Secondary Composite Joint Safety Endpoint: n [3]: 22 | Subchondral Insufficiency Fracture: n [3]: 7 | Normal Progression of OA: % [4]: (7.9%) | Normal Progression of OA: n [4]: 79 | Not enough information to determine Rapid vs. Normal Progression of OA: n [4]: 0 | Other Joint Outcome: % [4]: (2.1%) | Other Joint Outcome: n [4]: 21 | Pathological Fracture: n [4]: 0 | Primary Composite Joint Safety Endpoint: % [4]: 7.1% and (7.1%) | Primary Composite Joint Safety Endpoint: n [4]: 71 | Primary Osteonecrosis: % [4]: (0.1%) | Primary Osteonecrosis: n [4]: 1 | Rapidly Progressive OA type 1: % [4]: (4.9%) | Rapidly Progressive OA type 1: n [4]: 49 | Rapidly Progressive OA type 2: % [4]: 1.4% and (1.4%) | Rapidly Progressive OA type 2: n [4]: 14 | Rapidly Progressive OA: % [4]: (6.3%) | Rapidly Progressive OA: n [4]: 63 | Secondary Composite Joint Safety Endpoint: % [4]: (2.2%) | Secondary Composite Joint Safety Endpoint: n [4]: 22 | Subchondral Insufficiency Fracture: % [4]: (0.7%) | Subchondral Insufficiency Fracture: n [4]: 7 | Rapidly Progressive OA type 1: Associated with TJR No, % [5]: (90.0%) | Rapidly Progressive OA type 1: Associated with TJR Yes, % [5]: (10.0%) | Rapidly Progressive OA type 1: Baseline Kellgren-Lawrence Grade of Affected Joint 0, % [5]: (3.3%) | Rapidly Progressive OA type 1: Baseline Kellgren-Lawrence Grade of Affected Joint 1, % [5]: (20.0%) | Rapidly Progressive OA type 1: Baseline Kellgren-Lawrence Grade of Affected Joint 2, % [5]: (36.7%) | Rapidly Progressive OA type 1: Baseline Kellgren-Lawrence Grade of Affected Joint 3, % [5]: (40.0%) | Rapidly Progressive OA type 1: Joint affected Hip, % [5]: (13.3%) | Rapidly Progressive OA type 1: Joint affected Knee, % [5]: (86.7%) | Rapidly Progressive OA type 2: Associated with TJR No, % [5]: (66.7%) | Rapidly Progressive OA type 2: Associated with TJR Yes, % [5]: (33.3%) | Rapidly Progressive OA type 2: Baseline Kellgren-Lawrence Grade of Affected Joint 3, % [5]: (33.3%) | Rapidly Progressive OA type 2: Baseline Kellgren-Lawrence Grade of Affected Joint 4, % [5]: (66.7%) | Rapidly Progressive OA type 2: Joint affected Hip, % [5]: (33.3%) | Rapidly Progressive OA type 2: Joint affected Knee, % [5]: (66.7%) | Subchondral Insufficiency Fracture: Associated with TJR No, % [5]: (100.0%) | Subchondral Insufficiency Fracture: Baseline Kellgren-Lawrence Grade of Affected Joint 2, % [5]: (33.3%) | Subchondral Insufficiency Fracture: Baseline Kellgren-Lawrence Grade of Affected Joint 3, % [5]: (66.7%) | Subchondral Insufficiency Fracture: Joint affected Hip, % [5]: (33.3%) | Subchondral Insufficiency Fracture: Joint affected Knee, % [5]: (66.7%) | Rapidly Progressive OA type 1: Associated with TJR No, % [6]: (84.9%) | Rapidly Progressive OA type 1: Associated with TJR Yes, % [6]: (15.1%) | Rapidly Progressive OA type 1: Baseline Kellgren-Lawrence Grade of Affected Joint 0, % [6]: (3.8%) | Rapidly Progressive OA type 1: Baseline Kellgren-Lawrence Grade of Affected Joint 1, % [6]: (20.8%) | Rapidly Progressive OA type 1: Baseline Kellgren-Lawrence Grade of Affected Joint 2, % [6]: (43.4%) | Rapidly Progressive OA type 1: Baseline Kellgren-Lawrence Grade of Affected Joint 3, % [6]: (30.2%) | Rapidly Progressive OA type 1: Baseline Kellgren-Lawrence Grade of Affected Joint Not Available, % [6]: (1.9%) | Rapidly Progressive OA type 1: Joint affected Hip, % [6]: (15.1%) | Rapidly Progressive OA type 1: Joint affected Knee, % [6]: (83.0%) | Rapidly Progressive OA type 1: Joint affected Shoulder, % [6]: (1.9%) | Rapidly Progressive OA type 2: Associated with TJR No, % [6]: (43.8%) | Rapidly Progressive OA type 2: Associated with TJR Yes, % [6]: (56.3%) | Rapidly Progressive OA type 2: Baseline Kellgren-Lawrence Grade of Affected Joint 0, % [6]: (12.5%) | Rapidly Progressive OA type 2: Baseline Kellgren-Lawrence Grade of Affected Joint 1, % [6]: (6.3%) | Rapidly Progressive OA type 2: Baseline Kellgren-Lawrence Grade of Affected Joint 2, % [6]: (6.3%) | Rapidly Progressive OA type 2: Baseline Kellgren-Lawrence Grade of Affected Joint 3, % [6]: (31.3%) | Rapidly Progressive OA type 2: Baseline Kellgren-Lawrence Grade of Affected Joint 4, % [6]: (37.5%) | Rapidly Progressive OA type 2: Baseline Kellgren-Lawrence Grade of Affected Joint Not Available, % [6]: (6.3%) | Rapidly Progressive OA type 2: Joint affected Hip, % [6]: (43.8%) | Rapidly Progressive OA type 2: Joint affected Knee, % [6]: (50.0%) | Rapidly Progressive OA type 2: Joint affected Shoulder, % [6]: (6.3%) | Subchondral Insufficiency Fracture: Associated with TJR No, % [6]: (57.1%) | Subchondral Insufficiency Fracture: Associated with TJR Yes, % [6]: (42.9%) | Subchondral Insufficiency Fracture: Baseline Kellgren-Lawrence Grade of Affected Joint 0, % [6]: (14.3%) | Subchondral Insufficiency Fracture: Baseline Kellgren-Lawrence Grade of Affected Joint 1, % [6]: (14.3%) | Subchondral Insufficiency Fracture: Baseline Kellgren-Lawrence Grade of Affected Joint 2, % [6]: (57.1%) | Subchondral Insufficiency Fracture: Baseline Kellgren-Lawrence Grade of Affected Joint 3, % [6]: (14.3%) | Subchondral Insufficiency Fracture: Joint affected Hip, % [6]: (14.3%) | Subchondral Insufficiency Fracture: Joint affected Knee, % [6]: (85.7%)
